Our source for the Kd values is publication doi:10.1101/2022.02.08.479556.

Broadly, the Kd is the constant that tells how readily two partners part at equilibrium. The low end stands for tighter binding, the high end for weaker binding.

The target of the experiment is SARS-CoV-2 nucleocapsid protein N:G215C mutant (SARS-CoV-2) (UniProt P0DTC9). The experiment in a line: AUC.

Turning to “SARS-CoV-2 nucleocapsid protein N:G215C mutant (from UniProt P0DTC9 1-419) (natural protein)”, the dissociation constant Kd worked out at 3.3 µM.
